Test results published in US7228238B2, “Algorithmic design of peptides for binding and/or modulation of the functions of receptors and/or other proteins” (Cielo Institute, Inc., priority 2000, dated 2007).

Assays:
human NGF receptor = assay: EAR test system, transformed cell line expressing the NGF receptor, response to NGF; assay type: cell-based; conditions: for MODULATORY EFFECT: significance class of change in EAR response to NGF; for MODULATORY EFFECT / DIRECT EFFECT: NGF receptor cell line; for effect on EAR response to NGF: NGF receptor inhibition assay, PC-12 cells; for DIRECT EFFECT: significance class of change in EAR
Description: (§1) Peptides derived from receptor protein systems other than the D2DA receptor were also tested for their effects on their respective receptors. For the human muscarinic M1 receptor, CHO cells were transfected with the muscarinic M1 receptor cDNA derived from a human cDNA library essentially as described by Buckley et al. (Mol. Pharmacol. 1989 35:469–476). Briefly, the coding region of the M1 receptor was obtained from a human cDNA library and cloned into the expression vector pcDNA3 (Invitrogen, San Diego, Calif.). CHO-K1 cells were transformed with the construct, using the calcium phosphate method. Stably expressing transformants were obtained in the presence of 250 μg/ml geneticin. Transformed cell lines expressing the human NGF receptor also were obtained. The effects of the peptides derived by the methods of the present invention on the activities of the corresponding receptors in the transformed cell lines were evaluated in the same manner as described above for the D2DA-targeted algorithmically derived peptides, using the EAR test system.
The hydrophobic wavelength of a peptide containing L-amino acids is the same as a peptide containing D-amino acids in which the sequence is inverted. Such “retro-inverso” peptides have been previously described (Chorev, M. and Goodman, M. (1995) Trends Biotechnol. 13:438–445), but their use as mode-matched binding peptides has never before been contemplated. A retro-inverso peptide containing D-amino acids and having the sequence […] was synthesized (SEQ ID NO:97). This sequence of this peptide is inverted from that of peptide of SEQ ID NO:27, used in the NGF receptor inhibition assay. […] The peptide of SEQ ID NO:97 was tested in the same assay as the L-amino acid, forward sequence peptide of SEQ ID NO: 27.

[1] = target: T1, human long isoform D2DA receptor (Homo sapiens, UniProt P14416); assay: external acidification rate (EAR) by microphysiometry, response to dopamine, D2DA receptor-transfected mouse LtK cell system; conditions: for MODULATORY EFFECT LtK: significance class of effect on EAR response to dopamine ≈1 μM; for MODULATORY EFFECT LtK / DIRECT EFFECT LtK / influence on dopamine-induced increment in total milli-pH units (EAR response to dopamine) / ρ of one-tailed t-test paired within chamber, peptide influence on EAR response to dopamine: peptide 1 μM; for MODULATORY EFFECT LtK / DIRECT EFFECT LtK: D2DA-transfected LtK cells; for DIRECT EFFECT LtK: significance class of effect on EAR; for influence on dopamine-induced increment in total milli-pH units (EAR response to dopamine) / ρ of one-tailed t-test paired within chamber, peptide influence on EAR response to dopamine: LtK system, dopamine ≈1 μM
T1 sequence (P14416 whole entry, canonical isoform): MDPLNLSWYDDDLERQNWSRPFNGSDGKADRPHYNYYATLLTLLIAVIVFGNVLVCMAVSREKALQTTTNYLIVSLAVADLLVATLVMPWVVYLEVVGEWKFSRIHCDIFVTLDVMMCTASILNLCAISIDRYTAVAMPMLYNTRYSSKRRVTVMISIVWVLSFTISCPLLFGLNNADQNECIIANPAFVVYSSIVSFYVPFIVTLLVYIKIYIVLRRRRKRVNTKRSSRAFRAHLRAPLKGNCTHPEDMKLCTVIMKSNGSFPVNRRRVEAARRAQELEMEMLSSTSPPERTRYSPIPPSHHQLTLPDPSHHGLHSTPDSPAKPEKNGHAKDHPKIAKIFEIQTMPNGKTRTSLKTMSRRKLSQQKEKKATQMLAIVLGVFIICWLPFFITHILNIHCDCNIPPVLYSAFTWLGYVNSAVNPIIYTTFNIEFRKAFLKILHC
Description: (§2) Both cell systems were stably transfected with human long isoform D2DA receptor cDNA, which had been isolated from a human striatal cDNA library, sequenced and subcloned into the expression vector pRC/RSV (Invitrogen). […] Both systems were grown to confluence in DMEM containing 10% FBS. The cells were serum-starved 18–24 hours prior to use, and then assayed for EAR using a microphysiometer (Cytosensor; Molecular Devices, Sunnyvale, Calif.) in low buffering DMEM with 0.1% culture grade BSA.
(§3) The determination of EAR by microphysiometry involves a proton-sensitive silicon semiconductor photocurrent-driven sensor which measures changes in EAR resulting from effector-evoked alterations in cellular glycolytic and respiratory energy metabolism and/or alterations in sodium-hydrogen exchanges across cellular membranes. Protonic H^+, generated by such energy metabolism or exchanges, neutralizes the charge on the surface of the semiconductor, reducing the photocurrent produced at a rate linearly related to H^+production.
(§4) The microphysiometer monitors pH in flow-through chambers containing the receptor-transfected cells. Generally, if the cells lines used are adherent cell lines, the cells are seeded into “capsule cups”. If the cell lines are non-adherent cell lines, then the cells are immobilized in a fibrin matrix. For all microphysiometer runs, modified low buffering DMEM containing 0.1% BSA is pumped across the cells at a rate of approximately 100 μL/min, during which time the pH of the microenvironment surrounding the sensor surface is maintained at a relatively constant value. The measurement of the acid output rate of the cells, termed the acidification rate, is made when the fluid flow is periodically halted to allow buildup of acidic metabolites in the chamber, resulting in an alteration in the pH of the fluid. The pH is measured in millivolts, and converted to milli-pH units. The changes in pH are expressed as changes in milli-pH units per minute following the linear, time-dependent buildup of H^+during intermittent periods of pump arrest followed by washout. […] Ligand induced, receptor-mediated increases in cell metabolic and Na^+—H^+membrane regulatory activity is seen as an increase in the acidification rate.
(§5) Small Kolmogorov-Smirnov distances supported the assumption of normality in all of the data sets, so within chamber-paired, one-tailed t-tests with a significance criterion of ρ=0.05 were used.

[2] = target: T2, human muscarinic M1 receptor (Homo sapiens, UniProt P11229); assay: EAR test system, response to carbachol, M1 receptor-transfected CHO-K1 cells; assay type: cell-based; conditions: for MODULATORY EFFECT: significance class of effect on EAR due to carbachol
T2 construct: expressed in transfected cells; host or cells: CHO-K1 cells; expression vector pcDNA3; calcium phosphate method; geneticin selection
T2 sequence (P11229 1-460): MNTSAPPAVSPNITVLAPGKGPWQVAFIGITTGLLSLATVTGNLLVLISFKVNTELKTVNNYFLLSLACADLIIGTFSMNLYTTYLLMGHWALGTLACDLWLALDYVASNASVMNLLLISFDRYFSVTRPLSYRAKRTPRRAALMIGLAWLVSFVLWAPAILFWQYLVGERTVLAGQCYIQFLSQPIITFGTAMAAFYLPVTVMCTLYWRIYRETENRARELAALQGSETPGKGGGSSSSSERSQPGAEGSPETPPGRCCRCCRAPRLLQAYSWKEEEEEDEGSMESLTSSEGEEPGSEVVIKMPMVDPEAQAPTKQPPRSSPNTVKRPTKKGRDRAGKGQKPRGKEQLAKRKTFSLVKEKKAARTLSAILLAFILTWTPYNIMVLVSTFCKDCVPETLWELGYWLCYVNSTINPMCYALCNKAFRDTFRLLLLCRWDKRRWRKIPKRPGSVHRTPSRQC
Description: as §1

[3] = target: T1, human long isoform D2DA receptor; assay: external acidification rate (EAR) by microphysiometry, response to dopamine, D2DA receptor-transfected CHO cell system; conditions: peptide 1 μM; for DIRECT EFFECT CHO: significance class of effect on EAR; for DIRECT EFFECT CHO / MODULATORY EFFECT CHO: D2DA-transfected CHO cells; for MODULATORY EFFECT CHO: significance class of effect on EAR response to dopamine ≈1 μM
Description: as §2, §3, §4, §5

[4] = CHO cell system, dopamine ≈1 μM

Q: For 24 (RFVASAATEIEVNRL) [compound 24], which “MODULATORY EFFECT” value (human NGF receptor) is on record?
A: Its value is “** (** 0.001 < ρ ≦ 0.01)”.

Q: For 3 (ERNRKPYRPKNKYLL) [compound 3], which “MODULATORY EFFECT LtK” value [1] is on record?
A: The value was “*** (***ρ ≦ 0.001)”.

Q: How did the “MODULATORY EFFECT” value (human NGF receptor) turn out when 27 (DIKATEATDIEKGHL) [compound 27] was run?
A: The value was “*** (*** ρ ≦ 0.001)”.

Q: 15 (ITFTVKGLTLAAFTY) [compound 15] was tested. Which “MODULATORY EFFECT” value [2] did it give?
A: Its value is “*** (*** ρ ≦ 0.001)”.

Q: For 13 (FSFQCKSINYEALGY) [compound 13], which “DIRECT EFFECT” value ([2]; significance class of effect on EAR) is on record?
A: The value was “** (** 0.001 < ρ ≦ 0.01)”.

Q: And the “MODULATORY EFFECT” value [2]?
A: Its value is “** (** 0.001 < ρ ≦ 0.01)”.

Q: How did the “MODULATORY EFFECT LtK” value [1] turn out when 7 (SHQAWRYKNVNCYVI) [compound 7] was run?
A: Its value is “*** (***ρ ≦ 0.001)”.

Q: How did the “MODULATORY EFFECT” value (human NGF receptor) turn out when 25 (HYCASADPRIHKNAL) [compound 25] was run?
A: Its value is “*** (*** ρ ≦ 0.001)”.

Q: 8 (GETAFRYVNCNVYVYI) [compound 8] was tested. Which “DIRECT EFFECT CHO” value [3] did it give?
A: The value was “** (**0.001 < ρ ≦ 0.01)”.

Q: And the “DIRECT EFFECT LtK” value [1]?
A: Its value is “*** (***ρ ≦ 0.001)”.

Q: With H-DIKATEATDIEKGHL-OH [SEQ ID NO:27] as the substance, how does the “effect on EAR response to NGF” value (human NGF receptor) read?
A: The value was “significantly down-regulated”.

Q: Which “influence on dopamine-induced increment in total milli-pH units (EAR response to dopamine)” value (“influence on dopamine-induced increment” for short) [3, 4] does the source give for “H-THQAFHYCNKQCLVI-OH (cysteine pairing not given here) [SEQ ID NO:2]” here?
A: Its value is “did not significantly potentiate”.

Q: What about the “influence on dopamine-induced increment” value [1] of the same substance?
A: Its value is “did not significantly potentiate”.

Q: What about the “ρ of one-tailed t-test paired within chamber, peptide influence on EAR response to dopamine” value [1] of the same substance?
A: Its value is > 0.05.

Q: Which results are given for H-SHQRWEYKGVNCIVY-OH [SEQ ID NO:1]?
A: influence on dopamine-induced increment in total milli-pH units (EAR response to dopamine) [3, 4]: significantly potentiated; ρ of one-tailed t-test paired within chamber, peptide influence on EAR response to dopamine [3, 4]: < 0.0001; EAR dose response curves ([1]; LtK cells, dopamine 10^−8.5M to 10^−5.5M, peptide 10 nM to 3 μM): asymptotic sigmoidal kinetics, suggestive of positive cooperativity; influence on dopamine-induced increment in total milli-pH units (EAR response to dopamine) [1]: significantly potentiated; ρ of one-tailed t-test paired within chamber, peptide influence on EAR response to dopamine [1]: 0.0009

Q: With 29 (RFVRGDRNHFDCGEL) [compound 29] as the substance, how does the “MODULATORY EFFECT” value (human NGF receptor) read?
A: Its value is “*** (*** ρ ≦ 0.001)”.

Q: And the “DIRECT EFFECT” value (human NGF receptor)?
A: The value was “* (* 0.01 < ρ ≦ 0.05)”.

Q: How did the “MODULATORY EFFECT CHO” value [3] turn out when 1 (SHQRWEYKGVNCIVY) [compound 1] was run?
A: The value was “*** (***ρ ≦ 0.001)”.

Q: And the “DIRECT EFFECT CHO” value [3]?
A: Its value is “*** (***ρ ≦ 0.001)”.

Q: And the “MODULATORY EFFECT LtK” value [1]?
A: Its value is “*** (***ρ ≦ 0.001)”.

Q: What about the “DIRECT EFFECT LtK” value [1] of the same substance?
A: Its value is “*** (***ρ ≦ 0.001)”.

Q: For 26 (DFVDGAAGRLHKGEY) [compound 26], which “MODULATORY EFFECT” value (human NGF receptor) is on record?
A: Its value is “** (** 0.001 < ρ ≦ 0.01)”.

Q: 4 (ERNKLNYKNKNKYIL) [compound 4] was tested. Which “MODULATORY EFFECT LtK” value [1] did it give?
A: The value was “*** (***ρ ≦ 0.001)”.

Q: What does the source list for 5 (SHTAYHWMSCGKIVI) [compound 5]?
A: MODULATORY EFFECT CHO [3]: *** (***ρ ≦ 0.001); MODULATORY EFFECT LtK [1]: * (*0.01 < ρ ≦ 0.05)

Q: 30 (HFVRNERTHFDVSAL) [compound 30] was tested. Which “MODULATORY EFFECT” value (human NGF receptor) did it give?
A: The value was “* (* 0.01 < ρ ≦ 0.05)”.

Q: What about the “DIRECT EFFECT” value (human NGF receptor) of the same substance?
A: Its value is “* (* 0.01 < ρ ≦ 0.05)”.

Q: Which “MODULATORY EFFECT” value [2] does the source give for 17 (FNLSVKQWNYRAYNL) [compound 17] here?
A: The value was “** (** 0.001 < ρ ≦ 0.01)”.

Q: Which “MODULATORY EFFECT” value [2] does the source give for 14 (FSFGVKSWQYHALGY) [compound 14] here?
A: The value was “* (* 0.01 < ρ ≦ 0.05)”.

Q: With 28 (RFVDNDATDIEKGRI) [compound 28] as the substance, how does the “MODULATORY EFFECT” value (human NGF receptor) read?
A: Its value is “*** (*** ρ ≦ 0.001)”.

Q: What about the “DIRECT EFFECT” value (human NGF receptor) of the same substance?
A: Its value is “* (* 0.01 < ρ ≦ 0.05)”.

Q: For ERNRKPLRPKNKYLI [E . . . PL], which “influence on dopamine-induced increment” value [1] is on record?
A: The value was “statistically significant activation”.

Q: How did the “MODULATORY EFFECT” value (human NGF receptor) turn out when 23 (DLCRSARSDIEVTEY) [compound 23] was run?
A: The value was “*** (*** ρ ≦ 0.001)”.

Q: And the “DIRECT EFFECT” value (human NGF receptor)?
A: The value was “** (** 0.001 < ρ ≦ 0.01)”.

Q: With LHGKEIDTAETAKID [SEQ ID NO:97] as the substance, how does the “effect on EAR response to NGF” value (human NGF receptor) read?
A: Its value is “also down-regulated the EAR response of PC-12 cells to NGF, to an extent comparable”.

Q: How did the “influence on dopamine-induced increment” value [1] turn out when ERNRKPYRPKNKYLL [E . . . PY] was run?
A: The value was “statistically significant activation”.

Q: Which “MODULATORY EFFECT” value [2] does the source give for 16 (ISFNKCTWSFERYSL) [compound 16] here?
A: The value was “* (* 0.01 < ρ ≦ 0.05)”.
